Data: patent publication US10821189B2, “CD38 ligand-drug conjugates for targeted cancer therapy” (THE METHODIST HOSPITAL SYSTEM, priority 2015, dated 2020)

B1: Aptamer#1S: truncated 61-mer of Aptamer#1 inheriting the intact stem-loop structure, SEQ ID NO: 2 (nucleic acid)
DNA: TCCAGAGTGACGCAGCAGCCAACGTGCTTTCTACCTTATTTTCCGTCACTCTCACTCTGGA
modifications: DNA, backbone and methylation of C not given here; further chemistry not fully specified

What was measured:
[1] = DNase I digestion, release of free DOX; assay type: physicochemical
[2] = tested on: MM cells (RPMI8226); assay: Intracellular DOX delivery by confocal microscopy, MM cells; assay type: cell-based, Human; conditions: RPMI8226, 2 h treatment, equal molar DOX
Procedure: (§1) CD38+ MM and CD38− non-MM cells were incubated with free DOX (0.5 μmol/L final concentration) or ApDC (final equivalent concentration of aptamer was 0.1 μmol/L and DOX—0.5 μmol/L) for 1 hour. After washing, cells were resuspended with fresh medium, cultured for 2 hours, and then examined under a 40× objective (Olympus FV 1000 confocal microscope). DOX fluorescence was excited with a 5 mW, 488 nm Ar+ laser.

[3] = tested on: control cells (HDLM2); assay: Intracellular DOX delivery by confocal microscopy, control cells; assay type: cell-based; conditions: HDLM2, 2 h treatment, equal molar DOX
Procedure: as §1

[4] = tested on: orthotopic MM tumors (RPMI8226GL); assay: Orthotopic MM xenograft mouse model; assay type: in vivo, NOD/SCID IL2rg−/− mice; conditions: 0.5 mg/kg Dox, every other day, 13 treatments, observed up to 60 days
Procedure: 0.5×10^6 RPMI8226 GL cells were inoculated bilaterally into tibiae of 8- to 10-week-old NOD/SCID IL2rg−/− mice. Engraftment was monitored by weekly whole-body bioluminescence imaging on Xenogen IVIS imaging system, as previously reported (Wen, J., Feng, Y, Bjorklund, C. C., Wang, M., Orlowski, R. Z., Shi, Z. Z., Liao, B., O'Hare, J., Zu, Y, Schally, A. V., et al. 2011. Luteinizing Hormone-Releasing Hormone (LHRH)-I antagonist cetrorelix inhibits myeloma cell growth in vitro and in vivo. Mol Cancer Ther 10:148-158). Starting with day 6, mice were treated with free DOX (0.5 mg/kg) or an equivalent ApDC amount (6 mice per group) every other day (13 treatments total). Treatments were administered via the tail vein injection. Bioluminescence intensities representative of tumor mass were quantified by Living Image 3.1. Mice were euthanized by CO2 as they became moribund and their survival curves were plotted with SPSS 10 statistical software (SPSS Inc., Chicago, Ill., USA). All experiments were approved by the IACUC of the Houston Methodist Research Institute. Cells isolated from tumor tissues were examined under a fluorescence microscope for GFP expression. […]

[5] = target: T1, cellular CD38 proteins from MM cells (MM1S) (Homo sapiens, UniProt P28907); assay: Precipitation of cell lysate proteins with biotin-labeled aptamers, western blot with anti-CD38 antibody; assay type: binding; conditions: MM1S lysates
T1 construct: cells were lysed in radioimmunoprecipitation assay (RIPA) buffer; endogenous in cells; host or cells: MM1S (CD38+ myeloma cell line), RIPA lysate
T1 sequence (P28907 1-300): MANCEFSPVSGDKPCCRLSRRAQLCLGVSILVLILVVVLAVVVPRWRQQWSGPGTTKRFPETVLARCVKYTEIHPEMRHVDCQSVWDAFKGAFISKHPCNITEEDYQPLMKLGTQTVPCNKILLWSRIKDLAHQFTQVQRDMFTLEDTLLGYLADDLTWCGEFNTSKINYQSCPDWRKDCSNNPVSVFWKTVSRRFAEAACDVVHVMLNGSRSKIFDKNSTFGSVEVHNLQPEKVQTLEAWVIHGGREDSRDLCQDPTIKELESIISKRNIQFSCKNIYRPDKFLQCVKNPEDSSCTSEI
Procedure: Immunoprecipitation with biotin-labeled aptamers was performed as previously reported (Shi, F., Cheng, Y. F., Wang, X. L., and Edge, A. S. 2010. Beta-catenin up-regulates Atohl expression in neural progenitor cells by interaction with an Atohl 3′ enhancer. J Biol Chem 285:392-400). In brief, cells were lysed in radioimmunoprecipitation assay (RIPA) buffer supplemented with Halt protease and phosphatase inhibitor cocktail (Thermo Fisher Scientific). Biotin-labeled aptamers were incubated with lysates for 2 hours at 4° C. in SELEX binding buffer supplemented with Halt protease and phosphatase inhibitor cocktail. Aptamer-bound proteins were collected with streptavidin agarose resin (Thermo Fisher Scientific) following 1 hour incubation at 4° C. Precipitated proteins were washed 5 times with SELEX washing buffer supplemented with Halt protease and phosphatase inhibitor cocktail, boiled in sample buffer, and supernatants were analyzed by western blotting using an anti-CD38 antibody (Cell Signaling Technology, Danvers, Mass.). […]

[6] = tested on: control cells (HDLM2); assay: Cell binding assay of Cy3-labeled aptamers by flow cytometry, CD38-negative control cells
Text: (§2) The top-20 enriched aptamer sequences were synthesized to include Cy3 modification and their affinity and specificity analyzed by flow cytometry. Aptamer#1S was derived by truncating Aptamer#1 based on ValFold software structural prediction (VALWAY Technology Center, NEC Soft Ltd., Tokyo, Japan) (Navani, N. K., Mok, W. K., and Yingfu, L. 2009. In vitro selection of protein-binding DNA aptamers as ligands for biosensing applications. Methods Mol Biol 504:399-415).
(§3) For aptamer staining, cells were stained with Cy3-labeled aptamer at 50 nmol/L (for flow cytometry analysis) or 100 nmol/L (for fluorescence microscopy, Olympus America, Melville, N.Y.) for 30 minutes. For 5(6)-Carboxyfluorescein diacetate N-hydroxysuccinimidyl ester (CFSE, Abcam, Cambridge, Mass.) staining, CD38-control cells were pre-stained with 0.5 μmol/L CFSE for 15 minutes according to the manufacturer's specifications and mixed with unlabeled CD38+MM cells, followed by Cy3-labeled aptamer staining for 30 minutes. For antibody staining, cultured cells or mononuclear cells freshly isolated from MM patient bone marrow samples were stained with antibody (BioLegend) as specified for 15 minutes.

[7] = tested on: CD38 negative control cells (HDLM2); assay: Fluorescence microscopy of a cell mixture stained with Cy3-labeled aptamer, control cells; assay type: cell-based; conditions: control cells pre-stained in green
Procedure: as §3

[8] = tested on: MM cells (MM1S); assay: Cell binding assay of Cy3-labeled aptamers by flow cytometry, CD38+ MM cells; design: species or system Human; conditions: Cy3-labeled aptamer
Text: as §2, §3

[9] = tested on: xenograft tumors of lymphoma (K299GL); assay: Whole body fluorescent imaging of Cy5.5-labeled aptamer, control tumor; assay type: in vivo, NOD/SCID IL2rg−/− mice; conditions: control tumor in the same mouse
Procedure: (§4) In vitro biostability of Aptamer#1S was evaluated as previously described (49). In brief, the aptamer was incubated with human serum (Atlanta Biologicals) for 24 hours, and samples were collected at different times using phenol-chloroform extraction. The amount of undigested aptamer was visualized on a 5% agarose gel. In vivo experiments were done in accordance with the institutional guidelines for the use of laboratory animals. To determine the in vivo biostability of Aptamer#1S, 2×10^6 RPMI8226GL and K299GL cells were inoculated subcutaneously into 8- to 10-week-old NOD/SCID IL2rg−/− mice (Jackson Laboratory, Bar Harbor, Me.). Tumor growth was monitored by weekly whole-body bioluminescence imaging using Xenogen IVIS imaging system (PerkinElmer, Waltham, Mass.). Once tumors formed, 5 ng Cy5.5-labeled APTAMER#1S dissolved in PBS was injected via the tail vein and its signal was monitored on the IVIS system.

[10] = tested on: cultured MM cells (MM1S); assay: Fluorescence microscopy of a cell mixture stained with Cy3-labeled aptamer, MM cells; assay type: cell-based, Human
Procedure: as §3

[11] = DOX loading capacity by quenching of DOX fluorescence; assay type: physicochemical; conditions: components alone, FIG. 3C
Procedure: DOX was purchased from Thermo Fisher Scientific. Since DOX preferentially binds to double-stranded 5′-GC-3′ or 5′-CG-3′ repeats (Meng, L., Yang, L., Zhao, X., Zhang, L., Zhu, H., Liu, C., and Tan, W. 2012. Targeted delivery of chemotherapy agents using a liver cancer-specific aptamer. PLoS One 7:e33434), CG repeats were added to the 5′ end of Aptamer#1S to make the modified Aptamer#1S/CG-Cargo sequence. To determine the optimal molar ratio of aptamer to DOX, Apamer#1S/CG-Cargo sequence was heated at 95° C. for 5 minutes, cooled immediately on ice for 15 minutes, and then incubated with a fixed concentration of DOX (final concentration of DOX was 0.5 μmol/L) at various aptamer/DOX ratios ranging from 1:100 to 1:0.5. After 1 hour, the fluorescence (λEx=[…], λEm=[…]) was measured with a Synergy4 analyzer (BioTek, Winooski, Vt.). The minimal ratio at which the fluorescence of DOX was quenched to the maximal extent was determined as the optimal molar ratio (1:5 of aptamer to DOX) (29).

[12] = tested on: xenograft tumors of MM (RPMI8226GL); assay: Whole body fluorescent imaging of Cy5.5-labeled aptamer, MM tumor; assay type: in vivo, NOD/SCID IL2rg−/− mice
Procedure: as §4

[13] = Aptamer biostability in human serum, gel electrophoresis; assay type: in vitro ADME; conditions: human serum at 37° C.
Procedure: as §4

[14] = tested on: CD38+ (RPMI8226 and NCI-H929) and CD38− (K299 and Jeko1) cell lines; assay: Cell binding in additional CD38+ and CD38− cell lines
Procedure: as §3

Row | Molecule | fluorescence change after DNase treatment [1] | intracellular DOX delivery into MM cells [2] | intracellular DOX delivery into control cells [3] | survival of mice bearing orthotopic MM tumors [4] | precipitation of cellular CD38 protein [5] | binding to control cells (HDLM2) [6] | reaction with control cells in cell mixture [7] | binding to MM cells (MM1S) [8] | accumulation in control tumor [9] | targeting of MM cells in cell mixture ([10]; Cy3-labeled aptamer) | internalization into MM cells ([10]; intracellular signals) | drug loading capacity [11] | accumulation in MM tumor ([12]; Cy5.5-labeled, systemic administration) | duration of specific imaging signals ([12]; post systemic administration) | time stable in human serum [13] [h] | affinity and specificity in additional MM and control cells [14]
1 | COc1cccc2c1C(=O)c1c(O)c3c(c(O)c1C2=O)C[C@@](O)(C(=O)CO)C[C@@H]3O[C@H]1C[C@H](N)[C@H](O)[C@H](C)O1 [free DOX, doxorubicin] | no change | non-specific intracellular drug accumulation | non-specific intracellular drug accumulation | no effect on mouse survival |  |  |  |  |  |  |  |  |  |  |  | 
2 | B1 |  |  |  |  | specifically reacted to and immunoprecipitated cellular CD38 proteins | did not react to CD38-negative control cells | did not react to control cells | specifically targeted MM cells | not in control tumor | selectively targeted MM cells | internalized into the MM cells | very limited drug loading capacity | selectively accumulated in MM tumor | up to 12 h | ≥ 24 | further confirmed
